Reference: patent US8461106B2, “Biofilm prevention using lactoferrin” (The Trustees of the University of Pennsylvania, priority 2007, dated 2013)

Test system: Pseudomonas aeruginosa (PAO1)
Test: Plate based peg-lid crystal violet biofilm formation assay (Moskowitz)
Type: cell-based
Conditions: for detergent induced biofilm formation, effect of concomitant rhLactoferrin: 3 mg/ml rhLactoferrin
Protocol: Biofilm growth is determined using the plate based assay described by Moskowitz et al [Moskowitz, S. M., J. M. Foster, J. Emerson, et al., Clinically Feasible Biofilm Susceptibility Assay for Isolates of Pseudomonas Aeruginosa from Patients with Cystic Fibrosis. J Clin Microbiol, 2004. 42(5): p. 1915-22]. Pseudomonas aeruginosa (PAO1) cultures are grown to log phase (OD600=0.5) and 100 μl of culture is mixed with 25 μl of test 5× test substance and placed in 96 well flat bottom plates (Nalgene Nunc International, Rochester, N.Y.). A lid containing 96 polystyrene pegs (Nunc, TSP 96 well micro titer plate lid) is placed on top and the pegs are suspended in the wells. The lid is loosely fixed to the plate using a strip of parafilm (Menasha, Wis.). The plate is incubated without shaking at 37° C. for 20 hours at which time the lid containing the pegs is carefully removed from the 96 well culture plate and rinsed 3 times in sterile water. The pegs are placed in another 96 well plate containing Gram Crystal Violet (CV) (20 g/L CV, 8 g/L Ammonium Oxalate, 2% ethanol) for 15 min and then rinsed in sterile water three times to remove unbound crystal violet. The pegs are then immersed in a 96 well plate containing 200 ul of 100% EtOH for 15 minutes. The lid containing the pegs is removed from the eluted crystal violet and is read at 595 nm using a plate reader (Microplate Reader 680, Bio-Rad Hercules, Calif.).
These mutants are used as negative controls in each of the experiments to determine background signal above the blank.
The concentration of baby shampoo/chemical surfactant used for the clinical study was determined through in-vitro testing on planktonic pseudomonas aeruginosa and pre-formed pseudomonas aeruginosa biofilms. Bacterial and biofilm growth inhibition was determined using the plate based assay described in Moskowitz et al., (Clinically feasible biofilm susceptibility assay for isolates of Pseudomonas aeruginosa from patients with cystic fibrosis. J. Clinical Microbiology 2004; 42:1915-22). Briefly, PAO1 Pseudomonas aeruginosa bacterial strains were grown overnight. The following morning the culture was diluted to an OD600=0.1 with Luria-Bertani broth (LB) and the sample again diluted 1:100 in LB. […] At the completion of the incubation the lid containing the pegs was removed and processed for biofilm detection while the 96 well plate was analyzed for bacterial growth by determination of absorbance at 600 nm. […] The peg lid was then discarded and the eluted crystal violate was read on a microtiter plate reader (Microplate Reader 680, Bio-Rad Hercules, Calif.) at an optical density of 595 nm (OD595). […] Quantification of residual biofilms was performed as described above.

B1: rhLactoferrin: Recombinant human lactoferrin produced in Aspergillus niger, structurally identical to native human lactoferrin (protein, UniProt P02788 20-710, looked up)
Lactotransferrin: GRRRSVQWCAVSQPEATKCFQWQRNMRKVRGPPVSCIKRDSPIQCIQAIAENRADAVTLDGGFIYEAGLAPYKLRPVAAEVYGTERQPRTHYYAVAVVKKGGSFQLNELQGLKSCHTGLRRTAGWNVPIGTLRPFLNWTGPPEPIEAAVARFFSASCVPGADKGQFPNLCRLCAGTGENKCAFSSQEPYFSYSGAFKCLRDGAGDVAFIRESTVFEDLSDEAERDEYELLCPDNTRKPVDKFKDCHLARVPSHAVVARSVNGKEDAIWNLLRQAQEKFGKDKSPKFQLFGSPSGQKDLLFKDSAIGFSRVPPRIDSGLYLGSGYFTAIQNLRKSEEEVAARRARVVWCAVGEQELRKCNQWSGLSEGSVTCSSASTTEDCIALVLKGEADAMSLDGGYVYTAGKCGLVPVLAENYKSQQSSDPDPNCVDRPVEGYLAVAVVRRSDTSLTWNSVKGKKSCHTAVDRTAGWNIPMGLLFNQTGSCKFDEYFSQSCAPGSDPRSNLCALCIGDEQGENKCVPNSNERYYGYTGAFRCLAENAGDVAFVKDVTVLQNTDGNNNEAWAKDLKLADFALLCLDGKRKPVTEARSCHLAMAPNHAVVSRMDKVERLKQVLLHQQAKFGRNGSDCPDKFCLFQSETKNLLFNDNTECLARLHGKTTYEKYLGPQYVAGITNLKKCSTSPLLEACEFLRK
modifications: recombinant, Aspergillus niger
- detergent induced biofilm formation, effect of concomitant rhLactoferrin (induction by Curosurf, FIG. 5 bottom panel): blunts the induction of biofilm formation
- detergent induced biofilm formation, effect of concomitant rhLactoferrin (induction by Johnson and Johnson Baby Shampoo, FIG. 5 top panel): blunts the induction of biofilm formation
- detergent induced biofilm formation, effect of rhLactoferrin (detergents in general, FIGS. 4 and 5): inhibits detergent induced biofilm formation
- induction of biofilm formation by subtherapeutic concentrations of antibiotics, effect of added rhLactoferrin (subtherapeutic Cephalosporins and aminoglycosides, FIG. 3): blunted
